Consider 22 molecules from patent US20250163183A1 (COAGULANT THERAPEUTICS, published 2025).

In assay [1] the target is T1, human APC-PPACK (active site-blocked APC) (human, UniProt P04070 43-461, active site bound by the tripeptide inhibitor Phe-Pro-Arg-chloromethylketone (PPACK)).
T1 construct: Bought (Haematologic Technologies)
Description: ELISA. On the technique in general: An ELISA detects its analyte on a solid surface through an enzyme-linked reagent.

For assay [2], the target named is T2, human protein C (PC) zymogen (human, UniProt P04070 43-197; P04070 200-461).
T2 construct: Bought
Description: ELISA screen, PC-coated wells, OD450, n=2 [Continued].

Numbering of substitutions follows the chain as printed.

T2 sequence (P04070 43-197, chain 1 of 2): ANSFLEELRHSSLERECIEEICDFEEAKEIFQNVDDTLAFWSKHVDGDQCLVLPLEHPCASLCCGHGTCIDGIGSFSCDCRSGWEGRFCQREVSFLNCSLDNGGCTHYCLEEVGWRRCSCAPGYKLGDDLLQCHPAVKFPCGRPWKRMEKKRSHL
T2 sequence (P04070 200-461, chain 2 of 2): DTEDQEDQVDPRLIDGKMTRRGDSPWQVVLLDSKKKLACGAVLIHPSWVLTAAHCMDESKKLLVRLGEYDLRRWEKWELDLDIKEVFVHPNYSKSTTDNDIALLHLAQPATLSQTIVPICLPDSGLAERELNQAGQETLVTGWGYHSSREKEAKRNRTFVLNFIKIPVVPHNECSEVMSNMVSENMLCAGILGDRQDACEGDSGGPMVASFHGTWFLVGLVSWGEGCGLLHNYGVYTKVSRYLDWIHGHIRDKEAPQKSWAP
T1 sequence (P04070 other isoform, or with tags, fused parts or gaps): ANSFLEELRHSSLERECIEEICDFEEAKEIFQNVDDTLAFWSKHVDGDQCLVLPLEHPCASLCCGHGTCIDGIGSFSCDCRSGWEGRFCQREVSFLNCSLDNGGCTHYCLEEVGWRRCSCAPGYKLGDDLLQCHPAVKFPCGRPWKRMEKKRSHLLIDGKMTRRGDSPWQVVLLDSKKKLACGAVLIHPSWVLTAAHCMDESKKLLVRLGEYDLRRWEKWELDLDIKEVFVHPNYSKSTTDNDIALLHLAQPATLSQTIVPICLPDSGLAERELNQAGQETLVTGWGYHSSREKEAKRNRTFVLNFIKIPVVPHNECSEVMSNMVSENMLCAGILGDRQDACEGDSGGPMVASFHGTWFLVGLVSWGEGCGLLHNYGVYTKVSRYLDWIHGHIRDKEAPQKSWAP

B1: SR16983-R4-P1-C10 (VHH)
VHH: QVQLVESGGGLVQAGGSLRLSCVAYGSTFSINVFAWYRQAPGEQRELGELVAFIGRSGTTKYGDSVKGRFTISRDNAKNTVYLQMDSLRPEDTAVYYCNLGDYWGQGTQVTVSS
As to B1, the binding result in assay [1] is given as “binds”; in assay [2] it was “no binding”.

B2: SR16983-R2-P3-F01 (VHH)
VHH: EVQLVESGGGLVQPGGSLRLSCAASGFTFSTKWMYWVRQGPGKGLEWVSTIDASGGSTYYADSVKGRFTISRDNTEKKVYLQMNSLESADTAVYYCVRSAGGQFRGRGTQVTVSS
Regarding B2, the binding result is reported as “binds” in assay [1] and “no binding” in assay [2].

B3: SR16983-R2P1C12 (VHH)
VHH: B2 VHH with E1Q, T31M, A53T, G56S, T75S, E76K, K77N, K78T, V97A, Q103L
B3: the binding result in assay [1] is “binds”; in assay [2] it was “no binding”.

B4: SR16983-R2-P3-F10 (VHH)
VHH: QVQLVESGGGLVQPGGSLRLSCKASGFTFSTKWMYWVRQGPGKGLERVAAIDASGGSTYYADSVKGRFTISRDNSDNTVYLQMNSLESADTAVYYCARSEGGQFRGQGTQVTVSS
In the case of B4, the binding result in assay [1] is reported as “binds”; in assay [2] it was “no binding”.

B5: SR16983-R3P2A5 (VHH)
VHH: B4 VHH with V2L, K23A, D76E, V79L, Q103L, Q107R, S115A
Regarding B5, the binding result is listed as “binds” in assay [1] and “no binding” in assay [2].

B6: SR16983-R3-P3-E02 (VHH)
VHH: QLQLVESGGGLVQAGGSLRLSCVLSGNTFGRNVITWYRQPPGKQREFIAMITSSGSTRYADSVKGRFTMSRDTAKNTAFLQMSSLKVEDTAVYYCWTAIAGQGEYWGQGTQVTVSS
As for B6, the results for the binding result in assay [1] and in assay [2] were “binds” and “no binding”, respectively.

B7: SR16983-R2-P4-C02 (VHH)
VHH: QVQLVESGGGLVQAGGSLRLSCTTSGSTFSITAGGWYRQAPGKQRELVADIANDGSTTSADSVKGRFTISRDNAKNTVELQMSSLKLEDTAVYYCFVVGKSDSMPRARAYWGQGTQVTVSS
Turning to B7, the binding result in assay [1] is recorded as “binds”; in assay [2], “no binding”.

B8: SR16983-R3-P5-D08 (VHH)
VHH: EVQLVESGGGLVQAGGSLRLSCTGSGSTFSVTAGGWYRQAPGKQRELVADIANDGSTTYLDFVKGRFTISRDNAKNSVDLQMNSLKPEDTAVYYCFVVGISDSTPRPRAYWGQGTQVTVSS
Take B8: the values for the binding result in assay [1] and in assay [2] were “binds” and “no binding”, respectively.

B9: SR16983-R3P2H09 (VHH)
VHH: B7 VHH with Q1E, L20V, A40T, Q44E, S59Y, D61N, V92A, Y94R, K100I, A107P
With B9, the binding result in assay [1] is “binds”; in assay [2], “no binding”.

B10: SR16983-R2-P3-B01 (VHH)
VHH: QLQLVESGGGLVQAGGSLRLSCAASGRTFGTYVIGWFRQAPGKEREFVAAFSRSTGNTVYPDSVKGRFTISRDDAKNTVTLQMNSLKPEDTAVYYCAARASINYNYANWPYWGQGTQVTVSS
With B10, the binding result in assay [1] is listed as “binds”; in assay [2], “no binding”.

B11: SR16983-R2-P3-F12 (VHH)
VHH: B10 VHH with L2V, I34M, N57S, V59T, P61A, V79L, T80Y, A98T
Regarding B11, the binding result is “binds” in assay [1] and “no binding” in assay [2].

B12: SR16983-R3-P3-H10 (VHH)
VHH: QVQLVESGGGLVQAGDSLRLSCAASTRTVGTYVMGWFRQAPGKERELVAASSRSTGNTVYPDSVKGRFTVSRDDAKNALYLQMNSLKPEDTAIYYCAARASINYNYANWPYWGQGTQVTVSS
As for B12, the binding result in assay [1] was “binds”; in assay [2], “no binding”.

B13: SR16983-R3-P3-C10 (VHH)
VHH: B10 VHH with F29V, T31S, V33A, I34M, V48L, N57P, P61A, V79L, T80Y
For the molecule B13, the figures for the binding result in assay [1] and in assay [2] were “binds” and “no binding”, respectively.

B14: SR16983-R2-P4-F03 (VHH)
VHH: B10 VHH with L2V, T31S, I34M, V48L, N57S, P61A, R72K, V79L, T80Y, A98T
As for B14, the binding result is recorded as “binds” in assay [1] and “no binding” in assay [2].

B15: SR16983-R3P2D06 (VHH)
VHH: B10 VHH with A14P, F29V, T31S, I34M, F47L, V48L, F51S, P61A, V79L, T80Y
With B15, the binding result in assay [1] is on record as “binds”; in assay [2] it was “no binding”.

B16: SR16983-R2-P3-E04 (VHH)
VHH: B10 VHH with F29V, T31S, I34M, V48L, F51S, P61A, T69S, V79L, T80Y, A98T
B16: the binding result in assay [1] was “binds”; in assay [2], “no binding”.

B17: SR16983-R3-P5-H06 (VHH)
VHH: B10 VHH with T80Y
In the case of B17, the binding result is recorded as “binds” in assay [1] and “no binding” in assay [2].

B18: SR16983-R3P2D02 (VHH)
VHH: QLQLVESGGGLVQPGGSLRLSCAASGFTLDGYAIGWFRQAPGKEREGVSSIATSDGSTYYADSVKGRFTISGDDAKNTVYLHMNSLKPEDTAVYYCARGGSLVLRPKYYDYWGQGTQVTVSS
Turning to B18, the figures for the binding result in assay [1] and in assay [2] were “binds” and “no binding”, respectively.

B19: SR16983-R4-P1-C12 (VHH)
VHH: QLQLVESGGGLVQAGGSLRLSCAASGSTFSINVFAWYRQGSGEQRELVAFIGRSGTARYGDSVKGRFSISRDNAKKTVYLQMDSLRPEDTAVYYCNLGDYWGQGTQVTVSS
For the molecule B19, the binding result is recorded as “binds” in assay [1] and “no binding” in assay [2].

B20: SR16983-R3-P3-G04 (VHH)
VHH: QLQLVESGGGLVQAGGSLRLSCTASGSTVRVTAGGWYRQAPGNERELVADIDNGGRPTYADSVKGRFTISRDNAKNAVDLQMNNLKPEDTAVYYCFVIAIPDSAPRPRAYWGQGTQVTVSS
In the case of B20, the binding result is listed as “binds” in assay [1] and “no binding” in assay [2].

B21: SR16983-R3-P4-G09 (VHH)
VHH: B20 VHH with T23A, A40T, R56S, P57T, N84S, Y94R, A109S, Q116E
In the case of B21, the figures for the binding result in assay [1] and in assay [2] were “binds” and “no binding”, respectively.

B22: SR16983-R2-P4-E08 (VHH)
VHH: QLQLVESGGGLVQAGGSLTLSCAASGFTLDDYAIGWFRQAPGKEREGVSCIATSDGSTYYADSVKGRFTISSDNAKNTVYLQMNSLKPEDTAVYYCARGGLLLPKPELFDFRGQGTQVTVSP
Take B22: the binding result in assay [1] is given as “binds”; in assay [2], “no binding”.
